This is an account of results in patent publication US20260250363A1 (AP BIOSCIENCES, published 2026).

Experiment [1] addresses Recombinant SARS-CoV-2 BA.2 Spike (GCN4-IZ) His Protein, CF (R&D, 11109-CV) (SARS-CoV-2, UniProt P0DTC2 16-1211). Put plainly: BLI (ForteBio), mAb on AHC sensor, spike in solution. (BLI is a label-free optical method that tracks binding on a fibre tip over time.)
Experiment [2] has as its target SARS-CoV-2 Spike Trimer, His Tag (BA.4/Omicron) (MALS verified) (AcroBiosystems, SPN-C5229) (SARS-CoV-2, UniProt P0DTC2 16-1213). The description is as above.
Experiment [3] addresses SARS-CoV-2 Spike Trimer, His Tag (BA.5/Omicron) (MALS verified) (AcroBiosystems, SPN-C522e) (SARS-CoV-2, UniProt P0DTC2 16-1213). The experiment is described as above.
In experiment [4] the target is T1, SARS-CoV-2 B.1.1.529 Spike Protein (Omicron) (SARS-CoV-2, UniProt P0DTC2 16-1211). Put plainly: direct ELISA on coated spike, single dose (axis label 30nm). Background: An ELISA detects its analyte on a solid surface through an enzyme-linked reagent.
Experiment [5] concerns the target T2, SARS-CoV-2 Spike Protein, wild type (R&D, Cat. #10549-CV) (SARS-CoV-2, UniProt P0DTC2 16-1211). The experiment is described as follows: direct ELISA on coated spike.
Experiment [6] addresses T3, SARS-CoV-2 C.37 Spike His Protein (R&D, Cat. #10887-CV) (SARS-CoV-2, UniProt P0DTC2 16-1211). Put plainly: direct ELISA on coated spike.
Experiment [7] concerns the target T4, SARS-CoV-2 AY.1 Spike Protein (R&D, Cat. #10922-CV) (SARS-CoV-2, UniProt P0DTC2 16-1211). Put plainly: direct ELISA on coated spike.
The target of experiment [8] is T3, SARS-CoV-2 C.37 Spike His Protein (R&D, …). The experiment is described as follows: BLI (ForteBio), mAb on AHC sensor, spike in solution.
The target in experiment [9] is T4, SARS-CoV-2 AY.1 Spike Protein (R&D, …). The experiment is described as above.
Experiment [10] concerns the target T2, SARS-CoV-2 Spike Protein, wild type …. Described as above.
Experiment [11] shares this target. The experiment is described as follows: competition ELISA: blocks biotin-ACE2 binding to coated spike.
The target of experiment [12] is T3, SARS-CoV-2 C.37 Spike His Protein (R&D, …). Described as above.
The target in experiment [13] is T4, SARS-CoV-2 AY.1 Spike Protein (R&D, …). The description is as above.
The target in experiment [14] is T2, SARS-CoV-2 Spike Protein, wild type …. Described as above. This is another data set of the same source.
Experiment [15] addresses T3, SARS-CoV-2 C.37 Spike His Protein (R&D, …). The description is as above. The source holds these as a separate data set.
Experiment [16] has as its target T4, SARS-CoV-2 AY.1 Spike Protein (R&D, …). The experiment is described as above. The source holds these as a separate data set.
Experiment [17] addresses T5, SARS-CoV-2 Spike Protein, wild type (R&D, Cat. #10549-CV) (SARS-CoV-2, UniProt P0DTC2 16-1211).
Experiment [18] deals with T6, SARS-CoV-2 C.37 Spike His Protein (R&D, Cat. #10887-CV) (SARS-CoV-2, UniProt P0DTC2 16-1211).
In experiment [19] the target is T5, SARS-CoV-2 Spike Protein, wild type …. The experiment is described as follows: direct ELISA on coated spike. This is another data set of the same source.
Experiment [20] has as its target T6, SARS-CoV-2 C.37 Spike His Protein (R&D, …). The experiment is described as follows: direct ELISA on coated spike. The source holds these as a separate data set.
The target in experiment [21] is T7, SARS-CoV-2 B.1.617.2 Spike Protein (R&D, Cat. #10878-CV) (SARS-CoV-2, UniProt P0DTC2 16-1211). The experiment is described as follows: direct ELISA on coated spike.
Experiment [22] has as its target T8, SARS-CoV-2 AY.1 Spike Protein (R&D, Cat. #10922-CV) (SARS-CoV-2, UniProt P0DTC2 16-1211). Put plainly: direct ELISA on coated spike. The source holds these as a separate data set.
Experiment [23] has as its target T1, SARS-CoV-2 B.1.1.529 Spike Protein …. Put plainly: direct ELISA on coated spike.
Experiment [24] addresses T6, SARS-CoV-2 C.37 Spike His Protein (R&D, …). Put plainly: BLI (ForteBio), mAb on AHC sensor, spike in solution. The source holds these as a separate data set.
For experiment [25], the target named is T7, SARS-CoV-2 B.1.617.2 Spike Protein …. Described as above.
Experiment [26] deals with T8, SARS-CoV-2 AY.1 Spike Protein (R&D, …). The description is as above. The source holds these as a separate data set.
The target in experiment [27] is T1, SARS-CoV-2 B.1.1.529 Spike Protein …. The experiment is described as above.
The target of experiment [28] is T5, SARS-CoV-2 Spike Protein, wild type …. The experiment is described as above. This is another data set of the same source.
The target of experiment [29] is T8, SARS-CoV-2 AY.1 Spike Protein (R&D, …). The experiment is described as follows: competition ELISA: blocks biotin-ACE2 binding to coated spike. This is another data set of the same source.
Experiment [30] concerns the target T1, SARS-CoV-2 B.1.1.529 Spike Protein …. The experiment is described as above.
In experiment [31] the target is T7, SARS-CoV-2 B.1.617.2 Spike Protein …. The description is as above.
Experiment [32] deals with T1, SARS-CoV-2 B.1.1.529 Spike Protein ….
The target is the same in experiment [33]. This is another data set of the same source.
The target of experiment [34] is T5, SARS-CoV-2 Spike Protein, wild type …. The experiment is described as follows: competition ELISA: blocks biotin-ACE2 binding to coated spike. This is another data set of the same source.
Experiment [35] has as its target T6, SARS-CoV-2 C.37 Spike His Protein (R&D, …). The description is as above. This is another data set of the same source.
Experiment [36] deals with T7, SARS-CoV-2 B.1.617.2 Spike Protein …. The description is as above. The source holds these as a separate data set.

Where two headings read alike, the source gives them in different places.

B1: anti-SARS-CoV-2 antibody clone R3-1a-1 (antibody, V domains shown)
VH: QVQLVQSGAEVKKPGSSVKVSCKASGGTFSSYAISWVRQAPGQGLEWMGGIIPILGIANYAQKFQGRVTITADKSTSTAYMELSSLRSEDTAVYYCARDGGGSSGYHDYWGQGTLVTVSS
VL: NFMLTQPHSVSESPGKTVTISCTRSSGSIASKYVQWYQQRPGNSPTTVIYEDDQRPSGVPDRFSASIDSSANTASLTISGLKPEDEADYYCQSYDDNTAVFGGGTHLTVLG
For orientation: Kd means the equilibrium constant for the complex coming apart. Turning to B1, the equilibrium dissociation constant (Kd) in [1] is 4.36 nM; in [2], 10.3 nM; in [3] it was 12.5 nM. Besides, the binding result in experiment [4] is “no binding (tested: 30 nM (printed 30nm))”.

B2: Imdevimab (antibody, V domains shown)
VH: QVQLVESGGGVVQPGRSLRLSCAASGFTFSNYAMYWVRQAPGKGLEWVAVISYDGSNKYYADSVKGRFTISRDNSKNTLYLQMNSLRTEDTAVYYCASGSDYGDYLLVYWGQGTLVTVSS
VL: QSALTQPASVSGSPGQSITISCTGTSSDVGGYNYVSWYQQHPGKAPKLMIYDVSKRPSGVSNRFSGSKSGNTASLTISGLQSEDEADYYCNSLTSISTWVFGGGTKLTVLG
A word on the EC50: it is the concentration giving half of the maximal effect. Lower therefore signals an effect from little substance. As usually defined, the IC50 is the point on the concentration scale where inhibition reaches its midpoint. With B2, the EC50 was determined as 0.0681 nM in experiment [5], 0.0734 nM in experiment [6] and 0.0642 nM in [7]. For the same molecule, the Kd in experiment [8] worked out at 0.563 nM; in experiment [9], 0.305 nM; in [10], 2.32 nM. The concentration for half-maximal inhibition (IC50) in experiment [11] stood at 4.85 nM; in experiment [12], 3.77 nM; in experiment [13], 1.18 nM; in [14] it was 4.82 nM; in [15], 3.25 nM; in experiment [16], 0.697 nM.

B3: anti-SARS-CoV-2 antibody clone R4-1a-10 (antibody, V domains shown)
VH: QVQLQQWGAGLLKPSETLSLTCAVYGGSFSGNYWSWIRQPPGKGLEWIGEINHSGSTNYNPSLKSRVTISVDTSKNQFSLKLSSVTAADTAVYYCARGLLDYWGQGTLVTVSS
VL: QSVLTQPSSVSAAPWQRVTISCSGSDSNIGNNPVNWYQHVPGKAPTLLIYYDNFLASKISDRFSGSKSGTSASLAISGLQSDDEADYYCASWDDSLNGVVFGGGTKLTVLR
For the molecule B3, the half-inhibitory concentration (IC50) in experiment [17] was found to be 77 nM; in [18], 73.8 nM; in experiment [29], 0.738 nM; in [30], 1.86 nM; in experiment [31], 2.12 nM. The half-maximal effective concentration (EC50) in experiment [19] was determined as 0.479 nM; in [20] it was 1.99 nM; in experiment [21], 0.0369 nM; in experiment [22], 0.0407 nM; in [23], 0.0806 nM. The Kd turned out to be 1.01 nM in experiment [24]; 2.34 nM in experiment [25]; 1.79 nM in experiment [26]; 0.571 nM in experiment [27]; 3.23 nM in experiment [1]; 6.86 nM in experiment [2]. Moreover, the Kd in experiment [3] came to 7.86 nM; in experiment [28], 1.87 nM.

B4: anti-SARS-CoV-2 antibody clone R4-11 (antibody, V domains shown)
VH: QVQLVQSGAEVKKPGSSVKVSCKASGGAFSSYAISWVRQAPGQGLEWMGRIIPILGIANYAQKFQGRVTITADKSTSTAYMELSSLRSEDTAVYYCAGGSGYYYWGQGTTVTVSS
VL: QSVLTQPPSVSEAPGQRVTISCSGSSSNIANNAVNWYQQLPGQAPKLLIFYDDLLPSWVSDRFSGSKSGTSASLAISGLQSEDEADYYCAAWDDSLNGPVFGGGTKLTVLR
For B4, the EC50 in experiment [32] came out at 100 nM; in experiment [19], 0.0622 nM; in [20], 0.0677 nM; in experiment [21], 0.0559 nM; in experiment [22] it was 0.0905 nM. Moreover, the IC50 in [33] came out at 24 nM; in [34], 3.99 nM; in experiment [35], 1.8 nM; in [36], 1.14 nM; in [29], 0.787 nM. Moreover, the Kd in experiment [24] amounted to 1.23 nM; in [25] it was 1.53 nM; in experiment [26], 2.29 nM; in [27] it was 7.93 nM; in [28], 4.05 nM.
